B1: Late cornified envelope protein 1B (Homo sapiens), Q5T7P3 (parent)
chain: MSCQQNQQQCQPPPKCIPKCPPKCLTPRCPPKCPPKCPPVSSCCSVSSGGCCGSSSGGSCGSSSGGCCSSGGGGCCLSHHRRRRSHCHRPQSSGCCSQPSGGSSCCGGGSGQHSGGCC
partner: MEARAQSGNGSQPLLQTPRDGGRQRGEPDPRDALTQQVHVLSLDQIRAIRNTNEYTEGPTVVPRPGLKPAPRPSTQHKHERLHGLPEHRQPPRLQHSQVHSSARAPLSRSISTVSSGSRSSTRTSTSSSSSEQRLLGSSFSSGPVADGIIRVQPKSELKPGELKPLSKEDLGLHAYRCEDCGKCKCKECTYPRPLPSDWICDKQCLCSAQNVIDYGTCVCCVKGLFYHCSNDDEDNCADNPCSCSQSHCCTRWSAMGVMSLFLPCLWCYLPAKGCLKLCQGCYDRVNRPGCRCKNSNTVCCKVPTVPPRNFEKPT
B2: Keratin, type I cytoskeletal 13 (Homo sapiens), P13646 (parent)
chain: MSLRLQSSSASYGGGFGGGSCQLGGGRGVSTCSTRFVSGGSAGGYGGGVSCGFGGGAGSGFGGGYGGGLGGGYGGGLGGGFGGGFAGGFVDFGACDGGLLTGNEKITMQNLNDRLASYLEKVRALEEANADLEVKIRDWHLKQSPASPERDYSPYYKTIEELRDKILTATIENNRVILEIDNARLAADDFRLKYENELALRQSVEADINGLRRVLDELTLSKTDLEMQIESLNEELAYMKKNHEEEMKEFSNQVVGQVNVEMDATPGIDLTRVLAEMREQYEAMAERNRRDAEEWFHTKSAELNKEVSTNTAMIQTSKTEITELRRTLQGLEIELQSQLSMKAGLENTVAETECRYALQLQQIQGLISSIEAQLSELRSEMECQNQEYKMLLDIKTRLEQEIATYRSLLEGQDAKMIGFPSSAGSVSPRSTSVTTTSSASVTTTSNASGRRTSDVRRP
partner: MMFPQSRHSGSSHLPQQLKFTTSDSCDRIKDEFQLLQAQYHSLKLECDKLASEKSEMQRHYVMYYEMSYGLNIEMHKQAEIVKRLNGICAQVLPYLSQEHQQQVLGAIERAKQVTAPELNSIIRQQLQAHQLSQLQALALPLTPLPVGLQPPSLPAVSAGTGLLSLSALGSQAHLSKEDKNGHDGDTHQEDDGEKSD
B3: Trichoplein keratin filament-binding protein (Homo sapiens), Q9BT92 (parent)
chain: MALPTLPSYWCSQQRLNQQLARQREQEARLRQQWEQNSRYFRMSDICSSKQAEWSSKTSYQRSMHAYQREKMKEEKRRSLEARREKLRQLMQEEQDLLARELEELRLSMNLQERRIREQHGKLKSAKEEQRKLIAEQLLYEHWKKNNPKLREMELDLHQKHVVNSWEMQKEEKKQQEATAEQENKRYENEYERARREALERMKAEEERRQLEDKLQAEALLQQMEELKLKEVEATKLKKEQENLLKQRWELERLEEERKQMEAFRQKAELGRFLRHQYNAQLSRRTQQIQEELEADRRILQALLEKEDESQRLHLARREQVMADVAWMKQAIEEQLQLERAREAELQMLLREEAKEMWEKREAEWARERSARDRLMSEVLTGRQQQIQEKIEQNRRAQEESLKHREQLIRNLEEVRELARREKEESEKLKSARKQELEAQVAERRLQAWEADQQEEEEEEEARRVEQLSDALLQQEAETMAEQGYRPKPYGHPKIAWN
partner: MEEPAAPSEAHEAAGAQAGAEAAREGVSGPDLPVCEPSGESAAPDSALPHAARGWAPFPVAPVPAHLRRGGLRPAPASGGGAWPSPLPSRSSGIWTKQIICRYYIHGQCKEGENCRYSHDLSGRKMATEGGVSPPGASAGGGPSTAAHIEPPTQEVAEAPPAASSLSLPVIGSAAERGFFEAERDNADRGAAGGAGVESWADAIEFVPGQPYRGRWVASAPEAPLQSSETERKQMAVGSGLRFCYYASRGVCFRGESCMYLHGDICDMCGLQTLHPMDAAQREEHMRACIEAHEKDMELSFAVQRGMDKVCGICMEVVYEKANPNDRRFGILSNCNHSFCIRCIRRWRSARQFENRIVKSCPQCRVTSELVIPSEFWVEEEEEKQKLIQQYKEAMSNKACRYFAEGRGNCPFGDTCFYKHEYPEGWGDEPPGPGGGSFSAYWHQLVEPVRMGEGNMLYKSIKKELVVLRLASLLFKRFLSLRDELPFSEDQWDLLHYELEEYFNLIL
B4: Microtubule-associated tumor suppressor candidate 2 (Homo sapiens), Q5JR59-3 (parent)
chain: MGHCCCKPYNCLQCLDKTNESALVKEKELSIELANIRDEVAFHTAKCEKLQKEKEELERRFEDEVKRLGWQQQAELQELEERLQLQFEAEMARLQEEHGDQLLSIRCQHQEQVEDLTASHDAALLEMENNHTVAITILQDDHDHKVQELMSTHELEKKELEENFEKLRLSLQDQVDTLTFQSQSLRDRARRFEEALRKNTEEQLEIALAPYQHLEEDMKSLKQVLEMKNQQIHEQEKKILELEKLAEKNIILEEKIQVLQQQNEDLKARIDQNTVVTRQLSEENANLQEYVEKETQEKKRLSRTNEELLWKLQTGDPTSPIKLSPTSPVYRGSSSGPSSPARVSTTPR
partner: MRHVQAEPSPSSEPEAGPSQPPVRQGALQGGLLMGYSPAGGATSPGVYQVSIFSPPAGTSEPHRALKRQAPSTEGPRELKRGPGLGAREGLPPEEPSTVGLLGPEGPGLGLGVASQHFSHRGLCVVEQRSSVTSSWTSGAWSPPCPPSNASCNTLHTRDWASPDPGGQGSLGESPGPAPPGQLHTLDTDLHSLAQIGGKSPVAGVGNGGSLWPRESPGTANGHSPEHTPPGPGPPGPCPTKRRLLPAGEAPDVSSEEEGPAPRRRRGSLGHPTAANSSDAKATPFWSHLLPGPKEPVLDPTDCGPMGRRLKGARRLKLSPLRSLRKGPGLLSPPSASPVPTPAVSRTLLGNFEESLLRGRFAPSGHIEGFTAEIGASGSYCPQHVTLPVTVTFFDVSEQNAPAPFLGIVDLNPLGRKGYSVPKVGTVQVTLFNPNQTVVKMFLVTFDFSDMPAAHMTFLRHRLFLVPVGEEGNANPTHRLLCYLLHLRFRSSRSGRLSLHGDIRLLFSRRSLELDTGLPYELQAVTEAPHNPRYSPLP
B5: Coiled-coil domain-containing protein 68 (Homo sapiens), Q9H2F9 (parent)
chain: MTTVTVTTEIPPRDKMEDNSALYESTSAHIIEETEYVKKIRTTLQKIRTQMFKDEIRHDSTNHKLDAKHCGNLQQGSDSEMDPSCCSLDLLMKKIKGKDLQLLEMNKENEVLKIKLQASREAGAAALRNVAQRLFENYQTQSEEVRKKQEDSKQLLQVNKLEKEQKLKQHVENLNQVAEKLEEKHSQITELENLVQRMEKEKRTLLERKLSLENKLLQLKSSATYGKSCQDLQREISILQEQISHLQFVIHSQHQNLRSVIQEMEGLKNNLKEQDKRIENLREKVNILEAQNKELKTQVALSSETPRTKVSKAVSTSELKTEGVSPYLMLIRLRK
B6: Protein unc-50 homolog (Homo sapiens), Q53HI1 (parent)
chain: MLPSTSVNSLVQGNGVLNSRDAARHTAGAKRYKYLRRLFRFRQMDFEFAAWQMLYLFTSPQRVYRNFHYRKQTKDQWARDDPAFLVLLSIWLCVSTIGFGFVLDMGFFETIKLLLWVVLIDCVGVGLLIATLMWFISNKYLVKRQSRDYDVEWGYAFDVHLNAFYPLLVILHFIQLFFINHVILTDTFIGYLVGNTLWLVAVGYYIYVTFLGYSALPFLKNTVILLYPFAPLILLYGLSLALGWNFTHTLCSFYKYRVK
partner: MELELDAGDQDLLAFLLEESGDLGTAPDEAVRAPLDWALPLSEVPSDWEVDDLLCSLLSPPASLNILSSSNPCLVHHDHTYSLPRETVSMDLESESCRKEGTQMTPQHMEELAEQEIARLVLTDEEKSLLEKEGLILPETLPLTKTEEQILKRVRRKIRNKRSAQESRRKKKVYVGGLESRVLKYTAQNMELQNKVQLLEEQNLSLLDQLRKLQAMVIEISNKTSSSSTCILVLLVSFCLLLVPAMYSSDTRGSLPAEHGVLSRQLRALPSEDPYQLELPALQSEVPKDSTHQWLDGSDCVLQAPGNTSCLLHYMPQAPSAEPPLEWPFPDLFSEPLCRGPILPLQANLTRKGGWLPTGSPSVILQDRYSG
B7: Oxidative stress-induced growth inhibitor 1 (Homo sapiens), Q9UJX0 (parent)
chain: MSSSRKDHLGASSSEPLPVIIVGNGPSGICLSYLLSGYTPYTKPDAIHPHPLLQRKLTEAPGVSILDQDLDYLSEGLEGRSQSPVALLFDALLRPDTDFGGNMKSVLTWKHRKEHAIPHVVLGRNLPGGAWHSIEGSMVILSQGQWMGLPDLEVKDWMQKKRRGLRNSRATAGDIAHYYRDYVVKKGLGHNFVSGAVVTAVEWGTPDPSSCGAQDSSPLFQVSGFLTRNQAQQPFSLWARNVVLATGTFDSPARLGIPGEALPFIHHELSALEAATRVGAVTPASDPVLIIGAGLSAADAVLYARHYNIPVIHAFRRAVDDPGLVFNQLPKMLYPEYHKVHQMMREQSILSPSPYEGYRSLPRHQLLCFKEDCQAVFQDLEGVEKVFGVSLVLVLIGSHPDLSFLPGAGADFAVDPDQPLSAKRNPIDVDPFTYQSTRQEGLYAMGPLAGDNFVRFVQGGALAVASSLLRKETRKPP
partner: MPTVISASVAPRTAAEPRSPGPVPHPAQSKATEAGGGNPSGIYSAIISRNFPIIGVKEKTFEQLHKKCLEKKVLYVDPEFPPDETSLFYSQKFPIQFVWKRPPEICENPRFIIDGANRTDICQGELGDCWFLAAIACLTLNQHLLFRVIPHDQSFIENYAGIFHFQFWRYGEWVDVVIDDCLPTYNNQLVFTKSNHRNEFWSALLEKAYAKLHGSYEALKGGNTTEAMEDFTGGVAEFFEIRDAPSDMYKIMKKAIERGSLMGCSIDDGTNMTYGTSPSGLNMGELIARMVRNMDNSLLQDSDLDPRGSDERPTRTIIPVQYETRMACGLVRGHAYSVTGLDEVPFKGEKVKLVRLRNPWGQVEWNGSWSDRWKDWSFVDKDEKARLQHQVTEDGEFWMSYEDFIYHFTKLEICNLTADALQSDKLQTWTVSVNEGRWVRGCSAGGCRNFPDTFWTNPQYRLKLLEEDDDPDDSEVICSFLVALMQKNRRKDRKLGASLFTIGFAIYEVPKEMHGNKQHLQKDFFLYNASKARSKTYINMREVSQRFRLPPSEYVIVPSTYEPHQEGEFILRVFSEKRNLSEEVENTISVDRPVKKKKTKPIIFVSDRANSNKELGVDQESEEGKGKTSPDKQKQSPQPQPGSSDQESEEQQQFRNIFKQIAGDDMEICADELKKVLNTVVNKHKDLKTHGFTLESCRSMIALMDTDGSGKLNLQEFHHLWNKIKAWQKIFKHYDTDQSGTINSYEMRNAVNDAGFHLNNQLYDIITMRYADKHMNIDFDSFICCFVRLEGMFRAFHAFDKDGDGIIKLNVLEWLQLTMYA

The variants in one test derive from B1. The conditions noted are these: with spy2_human SPRY2, O43597.
With G108E, the “effect of a mutation on the interaction” value is “with no effect”.

The next test covers variants of B2. The following applies: with tle5_human TLE5, Q08117.
For the variant R355H, the “effect of a mutation on the interaction” value is given as “with no effect”.

The next test covers variants of B3. The following applies: with mkrn3_human MKRN3, Q13064.
For the variant K127R, the “effect of a mutation on the interaction” value is “with no effect”.

For the variant E417K, the “effect of a mutation on the interaction” value was “with no effect”.

The variants in another test derive from B4. The following applies: with atosb_human ATOSB.
Take A89V: the “effect of a mutation on the interaction” value is “with no effect”.

In a further test the parent is B5. The conditions noted are these: with tfp11_human TFIP11, Q9UBB9.
Sequence of tfp11_human TFIP11, Q9UBB9 (Q9UBB9 whole entry): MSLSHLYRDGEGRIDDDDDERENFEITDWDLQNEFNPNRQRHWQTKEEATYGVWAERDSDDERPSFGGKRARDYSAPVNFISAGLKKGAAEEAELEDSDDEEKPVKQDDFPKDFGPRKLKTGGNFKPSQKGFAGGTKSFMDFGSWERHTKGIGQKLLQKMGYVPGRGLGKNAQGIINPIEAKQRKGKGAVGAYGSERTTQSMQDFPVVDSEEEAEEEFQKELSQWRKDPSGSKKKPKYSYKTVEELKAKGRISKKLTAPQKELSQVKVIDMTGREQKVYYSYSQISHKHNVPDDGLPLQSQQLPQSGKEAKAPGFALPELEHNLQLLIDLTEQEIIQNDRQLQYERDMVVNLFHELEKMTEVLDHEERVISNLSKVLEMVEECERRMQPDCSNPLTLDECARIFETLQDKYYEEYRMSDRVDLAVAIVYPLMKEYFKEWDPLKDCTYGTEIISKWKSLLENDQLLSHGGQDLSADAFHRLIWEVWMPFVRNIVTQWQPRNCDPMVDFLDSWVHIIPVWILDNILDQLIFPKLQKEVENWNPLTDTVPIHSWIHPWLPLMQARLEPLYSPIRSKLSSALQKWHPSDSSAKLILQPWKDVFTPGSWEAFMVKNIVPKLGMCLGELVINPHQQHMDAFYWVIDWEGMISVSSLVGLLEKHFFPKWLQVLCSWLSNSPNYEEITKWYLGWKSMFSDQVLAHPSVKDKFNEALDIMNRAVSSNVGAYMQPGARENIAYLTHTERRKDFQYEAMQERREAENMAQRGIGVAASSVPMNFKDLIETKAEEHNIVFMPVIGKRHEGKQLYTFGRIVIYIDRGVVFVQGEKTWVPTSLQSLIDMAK
For the variant D151G, the “effect of a mutation on the interaction” value is “with no effect”.

Consider L100V, for which the “effect of a mutation on the interaction” value was “with no effect”.

With V249A, the “effect of a mutation on the interaction” value is recorded as “with no effect”.

A further test covers variants of B6. The conditions noted are these: with creb3_human CREB3, O43889.
As for S214G, the “effect of a mutation on the interaction” value was “with no effect”.

In the next test the parent is B7. The conditions noted are these: with can3_human CAPN3, P20807.
On to D320N, for which the “effect of a mutation on the interaction” value is listed as “with no effect”.

With S236L, the “effect of a mutation on the interaction” value is “with no effect”.

These data come from IntAct's records for PubMed 31515488.
